To fix the notation:
B1: Ab373 (antibody, V domains shown)
VH: EVQLVQSGAEVKKPGSSVKVSCKASGYTFSSYWMHWVRQAPGQGLEWIGYIKPSSGYTKYNQKFKDKATLTADKSTSTAYMELSSLRSEDTAVYYCARDYYGSSSWFAYWGQGTLVTVSS
VL: DIVMTQSQAFMSVTVGEKVTITCKASQNVGTNVAWYQQKPDQAPKALIYSASYRYSGVPSRFSGSGSGTDFTLTISSLEAEDAATYYCQQYNSYPYMYTFGQGTKLEIK
notes: humanized
B2: Ab420 (antibody, V domains shown)
VH: B1 VH with V20L, S30T
VL: EIVMTQSQATLSTSPGERATLSCKASQNVGTNVAWYQQKPGQAPRALIYSASYRYSGVPARFSGSGSGTDFTLTISSVEPEDFAVYYCQQYNSYPYMYTFGQGTKLEIK
notes: humanized
B3: Ab396 (antibody, V domains shown)
VH: B1 VH with V20L, S30T
VL: B2 VL with Q8P
notes: humanized
B4: Ab392 (antibody, V domains shown)
VH: B1 VH with S16A, V20L, S30T, S84R, E89D
VL: B2 VL with Q8P
notes: humanized
B5: Ab389 (antibody, V domains shown)
VH: B1 VH with S16T, V20L, S30T, Y32S, W33A, H35Q, R38K
VL: B2 VL with Q8P
notes: humanized
B6: Ab383 (antibody, V domains shown)
VH: B1 VH with E1Q, K12A, V20L, S30T, R38K
VL: B1 VL with D1E, Q8P, A43S
notes: humanized
B7: Ab385 (antibody, V domains shown)
VH: B1 VH
VL: B1 VL with D1E, Q8P, A43S
notes: humanized
B8: Ab377 (antibody, V domains shown)
VH: B1 VH with S16T, V20L, S30T, Y32S, W33A, H35Q, R38K
VL: B1 VL with D1E, Q8P, A43S
notes: humanized
B9: Ab382 (antibody, V domains shown)
VH: EVQLVQSGAEVKKPGASVKLSCKASGYTFTSYWMHWVRQAPGQGLEWIGYIKPSSGYTKYAQKLQGRVTLTADKSTSTAYMELRSLRSDDTAVYYCARDYYGSSSWFAYWGQGTLVTVSS
VL: B1 VL with D1E, Q8P, A43S
notes: humanized
B10: Ab398 (antibody, V domains shown)
VH: B9 VH with A16S, T30S, R38K, L64F, R84S, D89E
VL: B2 VL with Q8P
notes: humanized
B11: Ab381 (antibody, V domains shown)
VH: B1 VH with K12A, S16A, V20L, S30T, S84R, E89D
VL: B1 VL with D1E, Q8P, A43S
notes: humanized
B12: Ab378 (antibody, V domains shown)
VH: B9 VH with A16T, P41R, G44R, L64F, G66E, R84S, D89E
VL: B1 VL with D1E, Q8P, A43S
notes: humanized
B13: Ab393 (antibody, V domains shown)
VH: B1 VH with K12A, S16A, V20L, S30T, S84R, E89D
VL: B2 VL with Q8P
notes: humanized
B14: Ab376 (antibody, V domains shown)
VH: B1 VH with A9P, S16T, V20L, S30T, P41R, G44R, K67R
VL: B1 VL with D1E, Q8P, A43S
notes: humanized
B15: Ab399 (antibody, V domains shown)
VH: B1 VH with E1Q, K12A, S16T, V20L, S30T, R38K, A68V
VL: B2 VL with L11M, P15V, A43S, R45K
notes: humanized
B16: Ab388 (antibody, V domains shown)
VH: B1 VH with A9P, S16T, V20L, S30T, P41R, G44R, K67R
VL: B2 VL with Q8P
notes: humanized
B17: Ab397 (antibody, V domains shown)
VH: B1 VH
VL: B2 VL with Q8P
notes: humanized
B18: Ab380 (antibody, V domains shown)
VH: B1 VH with S16A, V20L, S30T, S84R, E89D
VL: B1 VL with D1E, Q8P, A43S
notes: humanized
B19: Ab386 (antibody, V domains shown)
VH: B9 VH with A16S, T30S, R38K, L64F, R84S, D89E
VL: B1 VL with D1E, Q8P, A43S
notes: humanized
B20: Ab379 (antibody, V domains shown)
VH: B1 VH with E1Q, K12A, S16A, V20L, S30T, R38K, S84R, E89D
VL: B1 VL with D1E, Q8P, A43S
notes: humanized
B21: Ab395 (antibody, V domains shown)
VH: B1 VH with E1Q, K12A, V20L, S30T, R38K
VL: B2 VL with Q8P
notes: humanized
B22: Ab374 (antibody, V domains shown)
VH: B9 VH with A16S, T30S, R38K, L64F, R84S, D89E
VL: B1 VL
notes: humanized
B23: Ab401 (antibody, V domains shown)
VH: B1 VH with S16T, V20L, S30T, Y32S, W33A, H35Q, R38K
VL: B2 VL with L11M, P15V, A43S, R45K
notes: humanized
B24: Ab375 (antibody, V domains shown)
VH: B1 VH with E1Q, K12A, S16T, V20L, S30T, R38K, A68V
VL: B1 VL with D1E, Q8P, A43S
notes: humanized
B25: Ab391 (antibody, V domains shown)
VH: B1 VH with E1Q, K12A, S16A, V20L, S30T, R38K, S84R, E89D
VL: B2 VL with Q8P
notes: humanized
B26: Ab394 (antibody, V domains shown)
VH: B9 VH
VL: B2 VL with Q8P
notes: humanized
B27: Ab387 (antibody, V domains shown)
VH: B1 VH with E1Q, K12A, S16T, V20L, S30T, R38K, A68V
VL: B2 VL with Q8P
notes: humanized
B28: Ab390 (antibody, V domains shown)
VH: B9 VH with A16T, P41R, G44R, L64F, G66E, R84S, D89E
VL: B2 VL with Q8P
notes: humanized

Where a chain is given by its changes, count along the chain named.

This assay deals with T1, purified ALK protein (BLitz, Table 20) (Homo sapiens (Human), UniProt Q9UM73 19-1038, limits assumed).
T1 construct: also called purified ALK proteins
T1 sequence (Q9UM73 19-1038 limits assumed): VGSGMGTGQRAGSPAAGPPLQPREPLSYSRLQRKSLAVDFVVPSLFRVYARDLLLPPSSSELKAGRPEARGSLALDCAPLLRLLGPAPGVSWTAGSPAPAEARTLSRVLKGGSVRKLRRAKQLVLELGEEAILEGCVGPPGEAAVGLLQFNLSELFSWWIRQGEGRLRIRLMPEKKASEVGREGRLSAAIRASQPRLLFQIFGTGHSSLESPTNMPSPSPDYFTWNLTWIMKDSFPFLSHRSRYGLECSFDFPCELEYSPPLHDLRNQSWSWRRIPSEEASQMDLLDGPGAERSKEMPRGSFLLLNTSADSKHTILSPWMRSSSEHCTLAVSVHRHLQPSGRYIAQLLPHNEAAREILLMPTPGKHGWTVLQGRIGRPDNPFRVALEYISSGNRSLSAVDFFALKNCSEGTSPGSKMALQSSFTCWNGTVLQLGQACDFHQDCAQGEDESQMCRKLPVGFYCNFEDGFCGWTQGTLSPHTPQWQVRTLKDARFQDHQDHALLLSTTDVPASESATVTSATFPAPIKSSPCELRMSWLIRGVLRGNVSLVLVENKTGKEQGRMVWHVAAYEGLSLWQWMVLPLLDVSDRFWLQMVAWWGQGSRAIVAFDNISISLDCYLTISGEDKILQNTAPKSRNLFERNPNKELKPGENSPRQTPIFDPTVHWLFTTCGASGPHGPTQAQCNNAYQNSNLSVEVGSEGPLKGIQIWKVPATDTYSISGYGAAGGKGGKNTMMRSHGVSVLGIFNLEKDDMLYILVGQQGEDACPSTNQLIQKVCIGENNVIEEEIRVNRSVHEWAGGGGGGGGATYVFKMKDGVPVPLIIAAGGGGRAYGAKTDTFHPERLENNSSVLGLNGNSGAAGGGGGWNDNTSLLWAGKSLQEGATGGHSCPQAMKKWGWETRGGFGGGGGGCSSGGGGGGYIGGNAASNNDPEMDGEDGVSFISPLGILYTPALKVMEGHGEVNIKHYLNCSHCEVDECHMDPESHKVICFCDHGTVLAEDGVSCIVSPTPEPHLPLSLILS
The assay is described as follows: BLI (BLitz), mAb on Protein A tip, purified ALK in solution. The protocol: Kinetic measurements of the monovalent affinity of the 96 humanized ALK antibody variants (Ab351-Ab446) were collected. Affinity ranking was performed using a BLitz® System (ForteBio, Menlo Park, Calif.). Humanized anti-ALK antibodies were immobilized at 0.5 mg/mL using Protein A tips. Once baseline stability was ensured, purified ALK proteins at 70 μg/mL were added. The resulting kinetic data were fit to a single binding site equation, from which the quoted monovalent KD values were derived.
For orientation: Kd means the free concentration of one partner at which half of the binding sites on the other are occupied at equilibrium, for simple one-to-one binding. For B1, the Kd was found to be 280 nM. The value for B2 was 233 nM; that for B3 was 176 nM. The value for B4 was 179 nM; that for B5 was 1550 nM.

As for B6, the Kd is 132 nM. Next, B7: 626 nM; B8: 927 nM. Next, B9: 141 nM. Molecule B10 showed a Kd of 221 nM. Next, B11: 180 nM; B12: 167 nM; B13: 186 nM.

For B14, the Kd was found to be 103 nM.

B15 displayed a Kd of 107 nM. The value for B16 was 108 nM; that for B17 was 378 nM; that for B18 was 141 nM. B19: the affinity, expressed as Kd, was 257 nM.

B20 displayed a Kd of 118 nM. Next, B21: 132 nM. The molecule B22 gave a Kd of 253 nM. The value for B23 was 1060 nM; that for B24 was 140 nM.

The molecule B25 gave a Kd of 175 nM. Turning to B26, the Kd was 157 nM. The value for B27 was 158 nM; that for B28 was 288 nM.

For the origin of these results see patent publication US20200157236A1 (CELLDEX THERAPEUTICS, published 2020).
